Data taken from paper PMC2192141.

B1: MOCT (mutant octamer) (dsDNA)
DNA 1: AGAGTAATTGATGGGCATTTTAATGG
DNA 2: CCATTAAAATGCCCATCAATTACTCT
B2: MIS (mutant D box) (dsDNA)
DNA 1: ATCTCAAAATATGGGTCTGATTGGCCA
DNA 2: TGGCCAATCAGACCCATATTTTGAGAT

Target: HMG I/Y (recombinant HMG I) (UniProt P17096 1-107)
Assay: EMSA

HMG I/Y (recombinant HMG I), sequence (P17096 whole entry): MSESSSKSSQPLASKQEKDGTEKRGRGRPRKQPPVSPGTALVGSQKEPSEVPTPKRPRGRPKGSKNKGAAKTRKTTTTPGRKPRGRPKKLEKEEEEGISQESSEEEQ

Binder | binding result
B1 | no binding
B2 | no binding
